# Measurements from IntAct's records for PubMed 19017275.
# B1: Phosphothreonine lyase OspF (Shigella flexneri), Q8VSP9 (parent)
# chain: MPIKKPCLKLNLDSLNVVRSEIPQMLSANERLKNNFNILYNQIRQYPAYYFKVASNVPTYSDICQSFSVMYQGFQIVNHSGDVFIHACRENPQSKGDFVGDKFHISIAREQVPLAFQILSGLLFSEDSPIDKWKITDMNRVSQQSRVGIGAQFTLYVKSDQECSQYSALLLHKIRQFIMCLESNLLRSKIAPGEYPASDVRPEDWKYVSYRNELRSDRDGSERQEQMLREEPFYRLMIE
# partner: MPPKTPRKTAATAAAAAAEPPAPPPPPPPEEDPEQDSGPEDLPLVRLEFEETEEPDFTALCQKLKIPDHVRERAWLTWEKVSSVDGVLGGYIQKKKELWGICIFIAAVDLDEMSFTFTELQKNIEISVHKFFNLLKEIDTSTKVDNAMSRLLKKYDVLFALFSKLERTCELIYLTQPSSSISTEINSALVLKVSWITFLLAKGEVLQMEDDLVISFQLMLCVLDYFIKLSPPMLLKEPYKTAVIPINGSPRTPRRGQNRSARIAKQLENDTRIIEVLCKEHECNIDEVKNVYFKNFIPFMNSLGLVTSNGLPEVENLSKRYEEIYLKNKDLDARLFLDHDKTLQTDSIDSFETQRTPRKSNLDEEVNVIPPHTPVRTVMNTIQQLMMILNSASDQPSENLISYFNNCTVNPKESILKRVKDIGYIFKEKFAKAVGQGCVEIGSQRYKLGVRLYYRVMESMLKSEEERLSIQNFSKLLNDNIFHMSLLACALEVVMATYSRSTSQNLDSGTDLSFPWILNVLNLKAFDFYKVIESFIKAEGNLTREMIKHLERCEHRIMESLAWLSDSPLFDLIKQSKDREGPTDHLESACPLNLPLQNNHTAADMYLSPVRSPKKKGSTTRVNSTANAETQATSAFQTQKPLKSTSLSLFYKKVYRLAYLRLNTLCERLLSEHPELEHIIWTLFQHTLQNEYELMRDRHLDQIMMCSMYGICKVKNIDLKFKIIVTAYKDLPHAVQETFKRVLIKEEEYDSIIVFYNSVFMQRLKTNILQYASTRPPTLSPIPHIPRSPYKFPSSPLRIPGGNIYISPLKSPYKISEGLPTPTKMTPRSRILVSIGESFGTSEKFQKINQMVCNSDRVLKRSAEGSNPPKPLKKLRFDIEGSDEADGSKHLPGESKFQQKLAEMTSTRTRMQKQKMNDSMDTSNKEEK
# Variants of: B1
# Conditions: with rb_human RB1, P06400
row,Variant,effect of a mutation on the interaction
1,I178R;C180G;E182A,decreasing interaction strength
